Experimental findings from US20260035432A1 (PRECIGEN, published 2026) are described below.

Assay [1] deals with T1, Extracellular domain (ECD) of ROR1 fused to human Fc region (UniProt Q01973 30-406, limits assumed).
T1 construct: extracellular domain; also called ROR1-Fc; ROR1-FC; not shown: human Fc region
Kind of assay: SPR, Biacore 3000; ROR1 ECD-human Fc on CM5 chip, antibody in solution. Here is the method: Different concentrations of humanized antibodies were injected in solution phase and data was analyzed using BIAevaluation to calculate Kd of the antibodies.
A general note: SPR reads the build-up and loss of mass on a sensor chip optically.

For assay [2], the target named is Extracellular domain (ECD) of ROR1 fused to human Fc region (UniProt Q01973). Kind of assay: ROR1-Fc affinity of the construct's binding domain; method not given.
Another assay addresses T2, ROR1-His (UniProt Q01973 30-403, limits assumed).
T2 construct: The construct is described nowhere; not shown: His tag
The assay is described as follows: ROR1-His affinity of the construct's binding domain; method not given.

For assay [3], the target named is Extracellular domain (ECD) of ROR1 fused to human Fc region (UniProt Q01973). Kind of assay: SPR, Biacore 3000; ROR1 ECD-human Fc on CM5 chip, antibody in solution.

T1 sequence (Q01973 30-406 limits assumed): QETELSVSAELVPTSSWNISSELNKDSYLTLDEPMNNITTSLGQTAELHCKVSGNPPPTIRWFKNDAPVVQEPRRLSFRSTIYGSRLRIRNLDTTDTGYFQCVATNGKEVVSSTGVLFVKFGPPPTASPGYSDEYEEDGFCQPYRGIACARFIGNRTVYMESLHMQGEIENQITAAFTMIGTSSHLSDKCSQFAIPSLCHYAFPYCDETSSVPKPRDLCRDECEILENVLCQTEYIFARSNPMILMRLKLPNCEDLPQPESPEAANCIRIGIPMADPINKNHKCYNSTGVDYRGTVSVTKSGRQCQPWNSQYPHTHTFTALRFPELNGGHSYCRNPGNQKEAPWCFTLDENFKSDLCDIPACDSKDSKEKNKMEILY
Extracellular domain (ECD) of ROR1 fused to human Fc region (UniProt Q01973), sequence (Q01973 30-406 limits assumed): as above
T2 sequence (Q01973 30-403 limits assumed): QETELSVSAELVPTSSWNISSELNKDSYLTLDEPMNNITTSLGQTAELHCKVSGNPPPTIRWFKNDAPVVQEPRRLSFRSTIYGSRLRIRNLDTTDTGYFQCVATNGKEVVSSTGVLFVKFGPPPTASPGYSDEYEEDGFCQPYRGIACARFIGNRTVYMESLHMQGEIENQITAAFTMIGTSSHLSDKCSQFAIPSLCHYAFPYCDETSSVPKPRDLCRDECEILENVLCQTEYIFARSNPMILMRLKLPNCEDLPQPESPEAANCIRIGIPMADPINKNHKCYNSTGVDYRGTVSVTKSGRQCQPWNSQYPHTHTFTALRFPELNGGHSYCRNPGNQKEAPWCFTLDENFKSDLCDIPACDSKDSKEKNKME

B1: Clone 18 (antibody, V domains shown)
VH: EVQLVESGGGLVQPGGSLRLSCSASGFTFSSYAMSWVRQVPGKGLVWISSISRGGTTYYADSVRGRFIISRDNAKNTLYLEMNNLRGEDTAVYYCARYDYDGYYAMDYWGQGTLVTVSS
VL: DIQLTQSPDSLAVSLGERATINCKASPDINSYLSWYQQRPGQPPRLLIHRANRLVDGVPDRFSGSGFGTDFTLTITSLQAEDVAIYYCLQYDEFPYTFGQGTKLEIK
notes: Variable regions fused to mouse constant regions (chimeric mouse IgG1 mAb) for SPR; also called hROR1 VH_18 / hROR1 VL_18
For orientation: Kd means the equilibrium constant for the complex coming apart. A high value points to weaker binding. As for B1, the Kd in assay [1] stood at 12.7 nM.

B2: Clone 04 (antibody, V domains shown)
VH: EVQLVESGGGLVQPGGSLRLSCAASGFTFSSYAMSWVRQAPGKGLEWVSAISRGGTTYYADSVKGRFTISRDNSKNTLYLQMNSLRAEDTAVYYCGRYDYDGYYAMDYWGQGTLVTVSS
VL: DIQMTQSPSSLSASVGDRVTITCQASPDINSYLNWYQQKPGKAPKLLIYRANNLETGVPSRFSGSGSGTDFTLTISSLQPEDIATYYCLQYDEFPYTFGQGTKLEIK
notes: Variable regions fused to mouse constant regions (chimeric mouse IgG1 mAb) for SPR; also called hROR1 VH_04 / hROR1 VL_04
Molecule B2 registered an equilibrium dissociation constant (Kd) in assay [1] of around 55 nM.

B3: Hum ROR1_18VH_(G4S)3x_VL_16 (antibody, mouse IgG1, V domains shown)
VH: EVQLVESGGGLVQPGGSLRLSCSASGFTFSSYAMSWVRQVPGKGLVWISSISRGGTTYYADSVRGRFIISRDNAKNTLYLEMNNLRGEDTAVYYCARYDYDGYYAMDYWGQGTLVTVSS
VL: DIQMTQSPSSLSASVGDRVTITCKASPDINSYLNWYQQKPGKAPKVLIYRANRLVDGVPSRFSGSGSGTDYTLTISSLQPEDFATYYCLQYDEFPYTFGQGTKVEIK
notes: The name reads as an scFv with a (G4S)3 linker; The method text says variable regions were fused to mouse constant regions (chimeric mouse IgG1); VH/VL are tied by the numbers in the name
The molecule B3 showed a dissociation constant Kd in assay [1] of 1.6 nM.

B4: Hum ROR1_18VH_(G4S)3x_VL_07 (antibody, mouse IgG1, V domains shown)
VH: EVQLVESGGGLVQPGGSLRLSCSASGFTFSSYAMSWVRQVPGKGLVWISSISRGGTTYYADSVRGRFIISRDNAKNTLYLEMNNLRGEDTAVYYCARYDYDGYYAMDYWGQGTLVTVSS
VL: DIQMTQSPSSLSASVGDRVTITCRASPDINSYVAWYQQKPGKAPKLLIYRANFLESGVPSRFSGSRSGTDFTLTISSLQPEDFATYYCLQYDEFPYTFGQGTKVEIK
notes: as for B3
In assay [1], B4 came in with a Kd of 3.87 nM.

B5: Clone 07 (antibody, V domains shown)
VH: EVQLVESGGGLVQPGGSLRLSCAASGFTFSSYAIIWVRQAPGKGLEWVARISRGGTTRYADSVKGRFTISADTSKETAYLQMNSLRAEDTAVYYCGRYDYDGYYAMDYWGQGTLVTVSS
VL: DIQMTQSPSSLSASVGDRVTITCRASPDINSYVAWYQQKPGKAPKLLIYRANFLESGVPSRFSGSRSGTDFTLTISSLQPEDFATYYCLQYDEFPYTFGQGTKVEIK
notes: Variable regions fused to mouse constant regions (chimeric mouse IgG1 mAb) for SPR; also called hROR1 VH_07 / hROR1 VL_07
In turn, B5 registered a dissociation constant (Kd) in assay [1] of around 90 nM.

B6: Hum ROR1_18VH_(G4S)3x_VL_04 (antibody, mouse IgG1, V domains shown)
VH: EVQLVESGGGLVQPGGSLRLSCSASGFTFSSYAMSWVRQVPGKGLVWISSISRGGTTYYADSVRGRFIISRDNAKNTLYLEMNNLRGEDTAVYYCARYDYDGYYAMDYWGQGTLVTVSS
VL: DIQMTQSPSSLSASVGDRVTITCQASPDINSYLNWYQQKPGKAPKLLIYRANNLETGVPSRFSGSGSGTDFTLTISSLQPEDIATYYCLQYDEFPYTFGQGTKLEIK
notes: as for B3
For the molecule B6, the Kd came out at 0.271 nM in assay [2], 0.372 nM with ROR1-His and 0.372 nM in assay [3].

B7: Hum ROR1_07VH_(G4S)3x_VL_05 (antibody, mouse IgG1, V domains shown)
VH: EVQLVESGGGLVQPGGSLRLSCAASGFTFSSYAIIWVRQAPGKGLEWVARISRGGTTRYADSVKGRFTISADTSKETAYLQMNSLRAEDTAVYYCGRYDYDGYYAMDYWGQGTLVTVSS
VL: DIQMTQSPSSLSASVGDRVTITCKASPDINSYLSWYQQKPGKAPKLLIYRANRLVDGVPSRFSGSGSGTDFTLTISSLQPEDIATYYCLQYDEFPYTFGQGTKLEIK
notes: as for B3
Turning to B7, binding in assay [1] was put at a Kd of 7.16 nM.

B8: Hum ROR1_07VH_(G4S)3x_VL_18 (antibody, mouse IgG1, V domains shown)
VH: EVQLVESGGGLVQPGGSLRLSCAASGFTFSSYAIIWVRQAPGKGLEWVARISRGGTTRYADSVKGRFTISADTSKETAYLQMNSLRAEDTAVYYCGRYDYDGYYAMDYWGQGTLVTVSS
VL: DIQLTQSPDSLAVSLGERATINCKASPDINSYLSWYQQRPGQPPRLLIHRANRLVDGVPDRFSGSGFGTDFTLTITSLQAEDVAIYYCLQYDEFPYTFGQGTKLEIK
notes: as for B3
Molecule B8 yielded a Kd in assay [1] of 11.7 nM.

B9: Hum ROR1_05VH_(G4S)3x_VL_16 (antibody, mouse IgG1, V domains shown)
VH: EVQLVESGGGLVQPGGSLRLSCAASGFTFSSYAMSWVRQAPGKGLEWVSSISRGGTTYYPDSVKGRFTISRDNSKNTLYLQMNSLRAEDTAVYYCGRYDYDGYYAMDYWGQGTLVTVSS
VL: DIQMTQSPSSLSASVGDRVTITCKASPDINSYLNWYQQKPGKAPKVLIYRANRLVDGVPSRFSGSGSGTDYTLTISSLQPEDFATYYCLQYDEFPYTFGQGTKVEIK
notes: as for B3
Turning to B9, the Kd in assay [2] worked out at 0.273 nM; in the assay with ROR1-His, 0.337 nM; in assay [3] it was 0.337 nM.

B10: Hum ROR1_18VH_(G4S)3x_VL_14 (antibody, mouse IgG1, V domains shown)
VH: EVQLVESGGGLVQPGGSLRLSCSASGFTFSSYAMSWVRQVPGKGLVWISSISRGGTTYYADSVRGRFIISRDNAKNTLYLEMNNLRGEDTAVYYCARYDYDGYYAMDYWGQGTLVTVSS
VL: DIQMTQSPSSLSASVGDRVTITCKASPDINSYLNWYQQKPGKAPKLLIYRANRLVDGVPSRFSGSGSGTDYTLTISSLQPEDFATYYCLQYDEFPYTFGAGTKVEIK
notes: as for B3
Take B10: the results for the Kd (in assay [2]; with ROR1-His; in assay [3]) were 0.201 nM, 0.209 nM and 0.209 nM, respectively.

B11: Clone 05 (antibody, V domains shown)
VH: EVQLVESGGGLVQPGGSLRLSCAASGFTFSSYAMSWVRQAPGKGLEWVSSISRGGTTYYPDSVKGRFTISRDNSKNTLYLQMNSLRAEDTAVYYCGRYDYDGYYAMDYWGQGTLVTVSS
VL: DIQMTQSPSSLSASVGDRVTITCKASPDINSYLSWYQQKPGKAPKLLIYRANRLVDGVPSRFSGSGSGTDFTLTISSLQPEDIATYYCLQYDEFPYTFGQGTKLEIK
notes: Variable regions fused to mouse constant regions (chimeric mouse IgG1 mAb) for SPR; also called hROR1 VH_05 / hROR1 VL_05
Regarding B11, the results for the dissociation constant Kd (in assay [2]; in the assay with ROR1-His; in assay [3]) were 35 nM, 37.4 nM and 35 nM, respectively.

B12: Clone 16 (antibody, V domains shown)
VH: EVQLVESGGGLVQPGGSLRLSCAASGFTFSSYAMSWVRQAPGKGLEWVASISRGGTTYYDPKFQDRATISADNSKNTAYLQMNSLRAEDTAVYYCGRYDYDGYYAMDYWGQGTLVTVSS
VL: DIQMTQSPSSLSASVGDRVTITCKASPDINSYLNWYQQKPGKAPKVLIYRANRLVDGVPSRFSGSGSGTDYTLTISSLQPEDFATYYCLQYDEFPYTFGQGTKVEIK
notes: Variable regions fused to mouse constant regions (chimeric mouse IgG1 mAb) for SPR; also called hROR1 VH_16 / hROR1 VL_16
In turn, B12 showed a Kd in assay [1] of 3.03 nM.

B13: Hum ROR1_07VH_(G4S)3x_VL_16 (antibody, mouse IgG1, V domains shown)
VH: EVQLVESGGGLVQPGGSLRLSCAASGFTFSSYAIIWVRQAPGKGLEWVARISRGGTTRYADSVKGRFTISADTSKETAYLQMNSLRAEDTAVYYCGRYDYDGYYAMDYWGQGTLVTVSS
VL: DIQMTQSPSSLSASVGDRVTITCKASPDINSYLNWYQQKPGKAPKVLIYRANRLVDGVPSRFSGSGSGTDYTLTISSLQPEDFATYYCLQYDEFPYTFGQGTKVEIK
notes: as for B3
In assay [1], B13 yielded a Kd of 4.08 nM.

B14: Hum_design_14_variant3 (antibody, V domains shown)
VH: EVQLVESGGGLVQPGGSLRLSCAASGFTFSSYAMSWVRQAPGKGLEWVASISRGGTTYYADSVKGRFTISRDNSKNTLYLQMNSLRAEDTAVYYCGRYDYDGYYAMDYWGQGTLVTVSS
VL: DIQMTQSPSSLSASVGDRVTITCKASPDINSYLNWYQQKPGKAPKLLIYRANRLVDGVPSRFSGSGSGTDFTLTISSLQPEDIATYYCLQYDEFPYTFGGGTKVEIK
notes: Variable regions fused to mouse constant regions (chimeric mouse IgG1 mAb) for SPR; also called hROR1 VH_14-3 / hROR1 VL_14-3
Regarding B14, the figures for the equilibrium dissociation constant (Kd) (in assay [2]; with ROR1-His; in assay [3]) were 0.959 nM, 1.3 nM and 1.3 nM, respectively.

B15: Hum_design_14_variant5 (antibody, V domains shown)
VH: EVQLVESGGGLVQPGGSLRLSCATSGFTFSSYAMSWMRKAPGKGLEYVASISRGGTTYYADSVKGRFTISVDKSKNTLYLQMNSLRAEDTAVYYCGRYDYDGYYAMDYWGQGTLVTVSS
VL: DIQMTQSPSSLSASVGDRVTITCKASPDINSYLNWYQQKPGKAPKLLIYRANRLVDGVPSRFSGSGSGTDYTLTISSLQPEDFATYYCLQYDEFPYTFGAGTKVEIK
notes: Variable regions fused to mouse constant regions (chimeric mouse IgG1 mAb) for SPR; also called hROR1 VH_14-5 / hROR1 VL_14-5
In assay [1], B15 displayed an equilibrium dissociation constant (Kd) of 4.52 nM.

B16: Hum ROR1_14VH_(G4S)3x_VL_16 (antibody, mouse IgG1, V domains shown)
VH: EVQLVESGGGLVQPGGSLRLSCATSGFTFSSYAMSWMRQAPGKGLEWVASISRGGTTYYADSVKGRFTISVDKSKNTLYLQMNSLRAEDTAVYYCGRYDYDGYYAMDYWGQGTLVTVSS
VL: DIQMTQSPSSLSASVGDRVTITCKASPDINSYLNWYQQKPGKAPKVLIYRANRLVDGVPSRFSGSGSGTDYTLTISSLQPEDFATYYCLQYDEFPYTFGQGTKVEIK
notes: as for B3
For the molecule B16, the Kd in assay [1] stood at 131 nM.

B17: Clone 14 (antibody, V domains shown)
VH: EVQLVESGGGLVQPGGSLRLSCATSGFTFSSYAMSWMRQAPGKGLEWVASISRGGTTYYADSVKGRFTISVDKSKNTLYLQMNSLRAEDTAVYYCGRYDYDGYYAMDYWGQGTLVTVSS
VL: DIQMTQSPSSLSASVGDRVTITCKASPDINSYLNWYQQKPGKAPKLLIYRANRLVDGVPSRFSGSGSGTDYTLTISSLQPEDFATYYCLQYDEFPYTFGAGTKVEIK
notes: Variable regions fused to mouse constant regions (chimeric mouse IgG1 mAb) for SPR; also called hROR1 VH_14 / hROR1 VL_14
With B17, the Kd (with ROR1-His; in assay [3]) was 1.45 nM in each case.

B18: Hum_design_14_variant4 (antibody, V domains shown)
VH: EVQLVESGGGLVQPGGSLRLSCAASGFTFSSYAMSWVRQAPGKGLEWVASISRGGTTYYPDSVKGRFTISRDNVRNILYLQMSSLRSEDTAMYYCGRYDYDGYYAMDYWGQGTLVTVSS
VL: DIQMTQSPSSLSASVGDRVTITCKASPDINSYLNWYQQKPGKAPKLLIYRANRLVDGVPSRFSGSGSGTDYTLTISSLQPEDFATYYCLQYDEFPYTFGAGTKVEIK
notes: Variable regions fused to mouse constant regions (chimeric mouse IgG1 mAb) for SPR; also called hROR1 VH_14-4 / hROR1 VL_14-4
For the molecule B18, the dissociation constant (Kd) is 0.284 nM in assay [2], 0.408 nM with ROR1-His and 0.408 nM in assay [3].
